{"source": "paper PMC6375914", "origin": "cited, not measured here", "key": {"[1]": {"molecular_target": "Ubc9 (Homo sapiens) (UniProt P63279)", "sequence (P63279 2-158)": "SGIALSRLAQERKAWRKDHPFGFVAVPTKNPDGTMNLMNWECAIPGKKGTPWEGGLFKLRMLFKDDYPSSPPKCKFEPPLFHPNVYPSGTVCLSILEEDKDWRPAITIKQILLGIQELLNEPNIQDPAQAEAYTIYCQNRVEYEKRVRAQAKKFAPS", "experiment": "ITC"}, "[2]": {"molecular_target": "Ubc9 (Homo sapiens) (UniProt P63279)", "experiment": "SPR"}}, "data": [{"substance": "SUMO1 (from UniProt P63165)", "values": [{"measurement": "Kd", "setting": "[1]", "result": 250, "unit": "nM"}, {"measurement": "Kd", "setting": "[2]", "result": 350, "unit": "nM"}]}]}
